The data set addresses T1, BstYI NN1 (K133N/S172N) (Bacillus stearothermophilus, K133N,S172N).
T1 chain: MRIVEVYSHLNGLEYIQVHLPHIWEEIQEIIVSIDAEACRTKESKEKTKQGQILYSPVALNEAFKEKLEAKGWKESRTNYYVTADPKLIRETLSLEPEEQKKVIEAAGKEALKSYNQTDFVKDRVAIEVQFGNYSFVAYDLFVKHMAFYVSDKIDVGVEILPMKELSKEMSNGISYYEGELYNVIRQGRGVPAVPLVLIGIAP
Description: cleavage_in_vitro; 60 C. The conditions noted are these: label: radiolabel.

B1: AGATCT site, 60 bp substrate (dsDNA)
DNA 1: AGATCT
DNA 2: AGATCT
For the molecule B1, the binding signal was 7 fold preference over AGATCC/GGATCT.

These data come from patent publication US20050164186, “Alteration of restriction endonuclease specificity by genetic selection” (published 2005).
